# Experimental data taken from patent US20200123221A1 (IMMATICS BIOTECHNOLOGIES, published 2020).
# Molecular target: HLA-A*02-presented PRAME-004 (SEQ ID NO:97)
# Experiment: cell-based or functional assay
row,Binder,"EC50 of IFNγ release from CD8+ T-cells with the TCR, T2 target cells loaded with PRAME-004 from 10 µM to 10 pM"
1,"TCR R17P1D7 (TCR, V domains shown) V domain 1: QTVTQSQPEMSVQEAETVTLSCTYDTSESDYYLFWYKQPPSRQMILVIRQEAYKQQNATENRFSVNFQKAAKSFSLKISDSQLGDAAMYFCAYRWAQGGSEKLVFGKGTKLTVNP V domain 2: DIYQTPRYLVIGTGKKITLECSQTMGHDKMYWYQQDPGMELHLIHYSYGVNSTEKGDLSSESTVSRIRTEHFPLTLESARPSHTSQYLCATELWSSGGTGELFFGEGSRLTVLE",1.83 nM
2,"TCR R16P1E8 (TCR, V domains shown) V domain 1: QKEVEQDPGPLSVPEGAIVSLNCTYSNSAFQYFMWYRQYSRKGPELLMYTYSSGNKEDGRFTAQVDKSSKYISLFIRDSQPSDSATYLCAMSEAAGNKLTFGGGTRVLVKP V domain 2: EAGVAQSPRYKIIEKRQSVAFWCNPISGHATLYWYQQILGQGPKLLIQFQNNGVVDDSQLPKDRFSAERLKGVDSTLKIQPAKLEDSAVYLCASSYTNQGEAFFGQGTRLTVVE",~1 µM
